T1: FcγRIIb extracellular domain with C-terminal His tag (human, UniProt P31994 43-217)
T1 construct: extracellular domain; also called FcgRIIb; not shown: His tag at the C terminus
T1 sequence (looked up): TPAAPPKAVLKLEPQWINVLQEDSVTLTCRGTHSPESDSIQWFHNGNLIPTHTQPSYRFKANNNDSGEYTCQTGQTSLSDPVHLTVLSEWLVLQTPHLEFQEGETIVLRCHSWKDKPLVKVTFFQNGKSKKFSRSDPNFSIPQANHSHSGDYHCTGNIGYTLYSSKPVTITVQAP

T2: FcγRIIa R type extracellular domain with C-terminal His tag (human, UniProt P12318 34-217)
T2 construct: extracellular domain; also called FcgRIIaR; not shown: His tag at the C terminus
T2 sequence (looked up): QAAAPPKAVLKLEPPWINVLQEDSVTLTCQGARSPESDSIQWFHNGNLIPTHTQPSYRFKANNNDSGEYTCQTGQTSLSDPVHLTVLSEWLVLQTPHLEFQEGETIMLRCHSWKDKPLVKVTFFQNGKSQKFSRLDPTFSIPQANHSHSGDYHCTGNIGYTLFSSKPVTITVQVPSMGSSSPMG

B1: IL6R-BP249/IL6R-L (antibody, human IgG1, kappa, name in EU numbering)
heavy: QVQLQESGPGLVKPSETLSLTCAVSGHSISHDHAWSWVRQPPGEGLEWIGFISYSGITNYNPSLQGRVTISRDNSKNTLYLQMNSLRAEDTAVYYCARSLARTTAMDYWGEGTLVTVSSASTKGPSVFPLAPSSKSTSGGTAALGCLVKDYFPEPVTVSWNSGALTSGVHTFPAVLQSSGLYSLSSVVTVPSSSLGTQTYICNVNHKPSNTKVDKKVEPKSCDKTHTCPPCPAPDYLGDDSVFLFPPKPKDTLMISRTPEVTCVVVDVSDEDGEVKFNWYVDGVEVHNAKTKPREEQDNSTYRVVSVLTVLHQDWLNGKEYKCKVSNKALPRPIEKTISKAKGQPREPQVYTLPPSRDELTKNQVSLTCLVKGFYPSDIAVEWESNGQPENNYKTTPPVLDSDGSFFLYSKLTVDKSRWQQGNVFSCSVMHEALHNHYTQESLSLSP
light: not shown
notes: human IgG1
B2: IL6R-BP501/IL6R-L (antibody, human IgG1, kappa, name in EU numbering)
heavy: QVQLQESGPGLVKPSETLSLTCAVSGHSISHDHAWSWVRQPPGEGLEWIGFISYSGITNYNPSLQGRVTISRDNSKNTLYLQMNSLRAEDTAVYYCARSLARTTAMDYWGEGTLVTVSSASTKGPSVFPLAPSSKSTSGGTAALGCLVKDYFPEPVTVSWNSGALTSGVHTFPAVLQSSGLYSLSSVVTVPSSSLGTQTYICNVNHKPSNTKVDKKVEPKSCDKTHTCPPCPAPELLGDDSVFLFPPKPKDTLMISRTPEVTCVVIDVAEEDGEVKFNWYVDGVEVHNAKTKPREEQYNSTYRVVSVLTVLHQDWLNGKEYKCKVSNKALPAPIEKTISKAKGQPREPQVYTLPPSRDELTKNQVSLTCLVKGFYPSDIAVEWESNGQPENNYKTTPPVLDSDGSFFLYSKLTVDKSRWQQGNVFSCSVMHEALHNHYTQESLSLSP
light: not shown
notes: human IgG1
B3: IL6R-BP435/IL6R-L (antibody, human IgG1, kappa, name in EU numbering)
heavy: QVQLQESGPGLVKPSETLSLTCAVSGHSISHDHAWSWVRQPPGEGLEWIGFISYSGITNYNPSLQGRVTISRDNSKNTLYLQMNSLRAEDTAVYYCARSLARTTAMDYWGEGTLVTVSSASTKGPSVFPLAPSSKSTSGGTAALGCLVKDYFPEPVTVSWNSGALTSGVHTFPAVLQSSGLYSLSSVVTVPSSSLGTQTYICNVNHKPSNTKVDKKVEPKSCDKTHTCPPCPAPDLLGDDSVFLFPPKPKDTLMISRTPEVTCVVVDVSDEDGEVKFNWYVDGVEVHNAKTKPREEQDNSTYRVVSVLTVLHQDWLNGKEYKCKVSNAALPRPTEKTISKAKGQPREPQVYTLPPSRDELTKNQVSLTCLVKGFYPSDIAVEWESNGQPENNYKTTPPVLDSDGSFFLYSKLTVDKSRWQQGNVFSCSVMHEALHNHYTQESLSLSP
light: not shown
notes: human IgG1
B4: IL6R-BP493/IL6R-L (antibody, human IgG1, kappa, name in EU numbering)
heavy: QVQLQESGPGLVKPSETLSLTCAVSGHSISHDHAWSWVRQPPGEGLEWIGFISYSGITNYNPSLQGRVTISRDNSKNTLYLQMNSLRAEDTAVYYCARSLARTTAMDYWGEGTLVTVSSASTKGPSVFPLAPSSKSTSGGTAALGCLVKDYFPEPVTVSWNSGALTSGVHTFPAVLQSSGLYSLSSVVTVPSSSLGTQTYICNVNHKPSNTKVDKKVEPKSCDKTHTCPPCPAPELLGGDSVFLFPPKPKDTLMISRTPEVTCVVIDVAEEDGEVKFNWYVDGVEVHNAKTKPREEQDNSTYRVVSVLTVLHQDWLNGKEYKCKVSNKALPAPIEKTISKAKGQPREPQVYTLPPSRDELTKNQVSLTCLVKGFYPSDIAVEWESNGQPENNYKTTPPVLDSDGSFFLYSKLTVDKSRWQQGNVFSCSVMHEALHNHYTQESLSLSP
light: not shown
notes: human IgG1
B5: IL6R-BP268/IL6R-L (antibody, human IgG1, kappa, name in EU numbering)
heavy: QVQLQESGPGLVKPSETLSLTCAVSGHSISHDHAWSWVRQPPGEGLEWIGFISYSGITNYNPSLQGRVTISRDNSKNTLYLQMNSLRAEDTAVYYCARSLARTTAMDYWGEGTLVTVSSASTKGPSVFPLAPSSKSTSGGTAALGCLVKDYFPEPVTVSWNSGALTSGVHTFPAVLQSSGLYSLSSVVTVPSSSLGTQTYICNVNHKPSNTKVDKKVEPKSCDKTHTCPPCPAPDLLGDDSVFLFPPKPKDTLMISRTPEVTCVVVDVSEEDGEVKFNWYVDGVEVHNAKTKPREEQDNSTYRVVSVLTVLHQDWLNGKEYKCKVSNKALPAPIEKTISKAKGQPREPQVYTLPPSRDELTKNQVSLTCLVKGFYPSDIAVEWESNGQPENNYKTTPPVLDSDGSFFLYSKLTVDKSRWQQGNVFSCSVMHEALHNHYTQESLSLSP
light: not shown
notes: human IgG1
B6: IL6R-BP264/IL6R-L (antibody, human IgG1, kappa, name in EU numbering)
heavy: QVQLQESGPGLVKPSETLSLTCAVSGHSISHDHAWSWVRQPPGEGLEWIGFISYSGITNYNPSLQGRVTISRDNSKNTLYLQMNSLRAEDTAVYYCARSLARTTAMDYWGEGTLVTVSSASTKGPSVFPLAPSSKSTSGGTAALGCLVKDYFPEPVTVSWNSGALTSGVHTFPAVLQSSGLYSLSSVVTVPSSSLGTQTYICNVNHKPSNTKVDKKVEPKSCDKTHTCPPCPAPDLLGDDSVFLFPPKPKDTLMISRTPEVTCVVVDVSEEDGEVKFNWYVDGVEVHNAKTKPREEQDNSTYRVVSVLTVLHQDWLNGKEYKCKVSNKALPRPIEKTISKAKGQPREPQVYTLPPSRDELTKNQVSLTCLVKGFYPSDIAVEWESNGQPENNYKTTPPVLDSDGSFFLYSKLTVDKSRWQQGNVFSCSVMHEALHNHYTQESLSLSP
light: not shown
notes: human IgG1
B7: IL6R-BP495/IL6R-L (antibody, human IgG1, kappa, name in EU numbering)
heavy: QVQLQESGPGLVKPSETLSLTCAVSGHSISHDHAWSWVRQPPGEGLEWIGFISYSGITNYNPSLQGRVTISRDNSKNTLYLQMNSLRAEDTAVYYCARSLARTTAMDYWGEGTLVTVSSASTKGPSVFPLAPSSKSTSGGTAALGCLVKDYFPEPVTVSWNSGALTSGVHTFPAVLQSSGLYSLSSVVTVPSSSLGTQTYICNVNHKPSNTKVDKKVEPKSCDKTHTCPPCPAPELLGDDSVFLFPPKPKDTLMISRTPEVTCVVVDVGEEDGEVKFNWYVDGVEVHNAKTKPREEQDNSTYRVVSVLTVLHQDWLNGKEYKCKVSNKALPRPIEKTISKAKGQPREPQVYTLPPSRDELTKNQVSLTCLVKGFYPSDIAVEWESNGQPENNYKTTPPVLDSDGSFFLYSKLTVDKSRWQQGNVFSCSVMHEALHNHYTQESLSLSP
light: not shown
notes: human IgG1
B8: IL6R-BP426/IL6R-L (antibody, human IgG1, kappa, name in EU numbering)
heavy: QVQLQESGPGLVKPSETLSLTCAVSGHSISHDHAWSWVRQPPGEGLEWIGFISYSGITNYNPSLQGRVTISRDNSKNTLYLQMNSLRAEDTAVYYCARSLARTTAMDYWGEGTLVTVSSASTKGPSVFPLAPSSKSTSGGTAALGCLVKDYFPEPVTVSWNSGALTSGVHTFPAVLQSSGLYSLSSVVTVPSSSLGTQTYICNVNHKPSNTKVDKKVEPKSCDKTHTCPPCPAPDLLGDDSVFLFPPKPKDTLMISRTPEVTCVVVDVAEDDGEVKFNWYVDGVEVHNAKTKPREEQYNSTYRVVSVLTVLHQDWLNGKEYKCKVSNKALPRPIEKTISKAKGQPREPQVYTLPPSRDELTKNQVSLTCLVKGFYPSDIAVEWESNGQPENNYKTTPPVLDSDGSFFLYSKLTVDKSRWQQGNVFSCSVMHEALHNHYTQESLSLSP
light: not shown
notes: human IgG1
B9: IL6R-BP480/IL6R-L (antibody, human IgG1, kappa, name in EU numbering)
heavy: QVQLQESGPGLVKPSETLSLTCAVSGHSISHDHAWSWVRQPPGEGLEWIGFISYSGITNYNPSLQGRVTISRDNSKNTLYLQMNSLRAEDTAVYYCARSLARTTAMDYWGEGTLVTVSSASTKGPSVFPLAPSSKSTSGGTAALGCLVKDYFPEPVTVSWNSGALTSGVHTFPAVLQSSGLYSLSSVVTVPSSSLGTQTYICNVNHKPSNTKVDKKVEPKSCDKTHTCPPCPAPDLLGDDSVFLFPPKPKDTLMISRTPEVTCVVVDLSEDDGEVKFNWYVDGVEVHNAKTKPREEQYNSTYRVVSVLTVLHQDWLNGKEYKCKVSNKALPAPIEKTISKAKGQPREPQVYTLPPSRDELTKNQVSLTCLVKGFYPSDIAVEWESNGQPENNYKTTPPVLDSDGSFFLYSKLTVDKSRWQQGNVFSCSVMHEALHNHYTQESLSLSP
light: not shown
notes: human IgG1
B10: IL6R-BP445/IL6R-L (antibody, human IgG1, kappa, name in EU numbering)
heavy: QVQLQESGPGLVKPSETLSLTCAVSGHSISHDHAWSWVRQPPGEGLEWIGFISYSGITNYNPSLQGRVTISRDNSKNTLYLQMNSLRAEDTAVYYCARSLARTTAMDYWGEGTLVTVSSASTKGPSVFPLAPSSKSTSGGTAALGCLVKDYFPEPVTVSWNSGALTSGVHTFPAVLQSSGLYSLSSVVTVPSSSLGTQTYICNVNHKPSNTKVDKKVEPKSCDKTHTCPPCPAPDLLGDDSVFLFPPKPKDTLMISRTPEVTCVVIDVAEEDGEVKFNWYVDGVEVHNAKTKPREEQYNSTYRVVSVLTVLHQDWLNGKEYKCKVSNKALPRPIEKTISKAKGQPREPQVYTLPPSRDELTKNQVSLTCLVKGFYPSDIAVEWESNGQPENNYKTTPPVLDSDGSFFLYSKLTVDKSRWQQGNVFSCSVMHEALHNHYTQESLSLSP
light: not shown
notes: human IgG1
B11: IL6R-BP557/IL6R-L (antibody, human IgG1, kappa, name in EU numbering)
heavy: QVQLQESGPGLVKPSETLSLTCAVSGHSISHDHAWSWVRQPPGEGLEWIGFISYSGITNYNPSLQGRVTISRDNSKNTLYLQMNSLRAEDTAVYYCARSLARTTAMDYWGEGTLVTVSSASTKGPSVFPLAPSSKSTSGGTAALGCLVKDYFPEPVTVSWNSGALTSGVHTFPAVLQSSGLYSLSSVVTVPSSSLGTQTYICNVNHKPSNTKVDKKVEPKSCDKTHTCPPCPAPELLGDDSVFLFPPKPKDTLMISRTPEVTCVVVDVGDEDGEVKFNWYVDGVEVHNAKTKPREEQDNSTYRVVSVLTVLHQDWLNGKEYKCKVSNKALPRPIEKTISKAKGQPREPQVYTLPPSRDELTKNQVSLTCLVKGFYPSDIAVEWESNGQPENNYKTTPPVLDSDGSFFLYSKLTVDKSRWQQGNVFSCSVMHEALHNHYTQESLSLSP
light: not shown
notes: human IgG1

Key:
Experiment in all cases: SPR, antibody captured, FcgR analyte
[1] = molecular target: T3, FcγRIa extracellular domain with C-terminal His tag (human, UniProt P12314 16-292)
T3 construct: also called FcgRIa; CD64; not shown: His tag at the C terminus
T3 sequence (P12314 16-292): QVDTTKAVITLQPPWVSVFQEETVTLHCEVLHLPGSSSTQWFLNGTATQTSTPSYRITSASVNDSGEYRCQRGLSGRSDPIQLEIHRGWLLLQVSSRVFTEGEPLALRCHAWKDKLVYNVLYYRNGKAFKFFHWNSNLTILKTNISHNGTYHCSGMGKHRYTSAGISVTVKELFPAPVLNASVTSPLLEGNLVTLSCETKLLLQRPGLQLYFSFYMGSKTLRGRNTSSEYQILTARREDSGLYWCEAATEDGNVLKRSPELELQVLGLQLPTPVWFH

[2] = molecular target: T1, FcγRIIb extracellular domain with …
[3] = molecular target: T2, FcγRIIa R type extracellular domain …

Row | Binder | Kd [1] [nM] | Kd [2] [nM] | Kd [3] [nM]
1 | B1 | 7 | – | –
2 | B2 | 2.1 | 25 | –
3 | B3 | 1 | – | –
4 | B4 | 0.82 | 21 | –
5 | B5 | 4.5 | 92 | –
6 | B6 | 7.4 | – | 350
7 | B7 | 8.3 | 9.7 | –
8 | B8 | 1 | – | –
9 | B9 | – | 200 | 6300
10 | B10 | 2 | 2.6 | 80
11 | B11 | – | 20 | 850

Source: US20220411483A1 (Chugai, published 2022)
